This note sets out measurements from patent US20040009172A1, “Use of anti-TNFalpha antibodies and another drug” (priority 2002, published 2004).

The series has as its system patients with rheumatoid arthritis (RA). In words: Multicenter, randomized, double-blind, placebo-controlled study of D2E7 in RA patients: safety (adverse events). The series is classed as in vivo, human. The protocol: A study was designed and conducted to investigate the safety and efficacy of D2E7 40 mg administered every other week to patients with RA whose disease was not adequately treated with their current anti-rheumatic therapies (including accepted DMARDs, NSAIDs, or steroids); and was a multicenter, randomized, double-blind, placebo-controlled study in which D2E7 was subcutaneously (sc) administered every other week for up to 24 weeks at a dosage of 40 mg to patients with rheumatoid arthritis (RA) whose disease was not adequately treated with their current anti-rheumatic therapies. Anti-rheumatic therapies permitted for use during the study included accepted disease-modifying anti-rheumatic drugs (DMARDs), non-steroidal anti-inflammatory drugs (NSAIDs), or steroids. Despite using anti-rheumatic therapies, patients must have had active disease documented at both the screening and baseline visits. Doses of DMARDs, as well as concomitant prednisone (<10 mg daily) and NSAIDs, were required to be stable for at least 28 days prior to screening. Additionally, patients using azathioprine and/or cyclosporine discontinued these therapies and underwent a 28-day washout period before screening. At the baseline visit, patients were randomized to D2E7 or placebo and this signified the start of the 24-week placebo-controlled period. Patients were examined at Weeks 2, 4, 8, 12, 16, 20 and 24 of the study.
D2E7 was supplied in 2-mL glass vials (the concentration of D2E7 in each vial was 25 mg/mL (ie, 40 mg/1.6 mL)), each containing 40 mg D2E7/1.6 mL solution for injection. D2E7 was manufactured and supplied by Ebewe Arzneimittel GmbH, in Unterach, Austria. McKesson, FIBOC Biosciences, in Rockville, Md., USA, packaged, labeled, stored and distributed D2E7 to the investigators at, each site for this study. […]
Adverse events were summarized by frequency, percentage, as well as the rate per 100 patient-years. […] All other efficacy variables were summarized descriptively (statistical characteristics, frequencies, percentages, confidence intervals) and analyzed by exploratory two-sided statistical tests. […]

The mark [1] stands for this setting: added to existing DMARD therapies.

As for “D2E7: recombinant, neutralizing human anti-hTNFα antibody; VL region SEQ ID NO: 1, VH region SEQ ID NO: 2”, for the setting “40 mg, alone or in combination with other DMARDs”, the Safety entry is reported as “safe”. Under setting [1], the “Incidence or profile of adverse events” value is given as “not associated with any major changes in the incidence or profile of adverse events” and the Tolerability entry is reported as “generally well-tolerated”.
